Literature values in PMC2778592.

Molecular target: EGFR (Homo sapiens) (UniProt P00533)

In the case of “tenascin-C Ten14 EGF-L repeat (from UniProt P24821)”, the Kd is given as 74 µM.
